Among the targets are STAU1 dsRBD3/4 (Homo sapiens, UniProt O95793-2 102-274); dsRBD3/4 E110A L113A (Homo sapiens, UniProt O95793-2 102-274, E110A;L113A); dsRBD3/4 R209A (Homo sapiens, UniProt O95793-2 102-274, R209A); dsRBD3 I105A S106A (Homo sapiens, UniProt O95793-2 102-181, I105A;S106A); dsRBD3/4 Q212A Q215A (Homo sapiens, UniProt O95793-2 102-274, Q212A;Q215A); STAU1 dsRBD3 (Homo sapiens, UniProt O95793-2 102-181); dsRBD4 S208A Q212A Q215A (Homo sapiens, UniProt O95793-2 205-274, S208A;Q212A;Q215A); STAU1 dsRBD4 (Homo sapiens, UniProt O95793-2 205-274); dsRBD3/4 F109A R209A (Homo sapiens, UniProt O95793-2 102-274, F109A;R209A); dsRBD3/4 I105A S106A (Homo sapiens, UniProt O95793-2 102-274, I105A;S106A); dsRBD3/4 F109A (Homo sapiens, UniProt O95793-2 102-274, F109A); dsRBD3/4 R234A R236A (Homo sapiens, UniProt O95793-2 102-274, R234A;R236A); dsRBD3/4 K133A (Homo sapiens, UniProt O95793-2 102-274, K133A); dsRBD3/4 S208A (Homo sapiens, UniProt O95793-2 102-274, S208A); dsRBD3 E110A L113A (Homo sapiens, UniProt O95793-2 102-181, E110A;L113A); dsRBD4 Q212A Q215A (Homo sapiens, UniProt O95793-2 205-274, Q212A;Q215A); dsRBD3 F109A (Homo sapiens, UniProt O95793-2 102-181, F109A).

What all share (assay): fluorescence anisotropy
In general terms: Polarisation of emitted light reports the rotation of a fluorescent probe.

For data set [1], the target named is dsRBD3/4 E110A L113A Q212A Q215A (Homo sapiens, UniProt O95793-2 102-274, E110A;L113A;Q212A;Q215A).
Sequence of dsRBD3/4 E110A L113A Q212A Q215A (O95793 183-355 E191A/L194A/Q293A/Q296A): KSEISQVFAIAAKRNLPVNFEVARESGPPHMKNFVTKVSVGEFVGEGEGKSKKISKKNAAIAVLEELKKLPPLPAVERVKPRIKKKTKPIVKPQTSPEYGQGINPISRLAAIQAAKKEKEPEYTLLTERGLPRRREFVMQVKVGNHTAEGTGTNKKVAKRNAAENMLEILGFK
In data set [2] the target is dsRBD3/4 S208A Q212A Q215A (Homo sapiens, UniProt O95793-2 102-274, S208A;Q212A;Q215A).
Sequence of dsRBD3/4 S208A Q212A Q215A (O95793 183-355 S289A/Q293A/Q296A): as the sequence (O95793 183-355 E191A/L194A/Q293A/Q296A) above, with A9E, A12L, S107A counted along it
For data set [3], the target named is dsRBD3/4 I105A S106A E110A L113A (Homo sapiens, UniProt O95793-2 102-274, I105A;S106A;E110A;L113A).
Sequence of dsRBD3/4 I105A S106A E110A L113A (O95793 183-355 I186A/S187A/E191A/L194A): as the sequence (O95793 183-355 E191A/L194A/Q293A/Q296A) above, with I4A, S5A, A111Q, A114Q counted along it
The target of data set [4] is dsRBD3/4 I105A S106A S208A Q212A Q215A (Homo sapiens, UniProt O95793-2 102-274, I105A;S106A;S208A;Q212A;Q215A).
Sequence of dsRBD3/4 I105A S106A S208A Q212A Q215A (O95793 183-355 I186A/S187A/S289A/Q293A/Q296A): as the sequence (O95793 183-355 E191A/L194A/Q293A/Q296A) above, with I4A, S5A, A9E, A12L, S107A counted along it

We go through three molecules from article PMC7038937.

The Kd is the concentration at which binding is half-saturated.

Sequence of STAU1 dsRBD3/4 (O95793 183-355): as the sequence (O95793 183-355 E191A/L194A/Q293A/Q296A) above, with A9E, A12L, A111Q, A114Q counted along it
Sequence of dsRBD3/4 E110A L113A (O95793 183-355 E191A/L194A): as the sequence (O95793 183-355 E191A/L194A/Q293A/Q296A) above, with A111Q, A114Q counted along it
Sequence of STAU1 dsRBD3 (O95793 183-262): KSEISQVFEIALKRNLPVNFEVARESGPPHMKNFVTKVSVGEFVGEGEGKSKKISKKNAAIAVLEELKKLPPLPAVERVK
Sequence of dsRBD3/4 I105A S106A (O95793 183-355 I186A/S187A): as the sequence (O95793 183-355 E191A/L194A/Q293A/Q296A) above, with I4A, S5A, A9E, A12L, A111Q, A114Q counted along it
Sequence of dsRBD3 I105A S106A (O95793 183-262 I186A/S187A): as the sequence (O95793 183-262) above, with I4A, S5A counted along it
Sequence of dsRBD3 F109A (O95793 183-262 F190A): as the sequence (O95793 183-262) above, with F8A counted along it
Sequence of dsRBD3/4 F109A (O95793 183-355 F190A): as the sequence (O95793 183-355 E191A/L194A/Q293A/Q296A) above, with F8A, A9E, A12L, A111Q, A114Q counted along it
Sequence of dsRBD3/4 R234A R236A (O95793 183-355 R315A/R317A): as the sequence (O95793 183-355 E191A/L194A/Q293A/Q296A) above, with A9E, A12L, A111Q, A114Q, R133A, R135A counted along it
Sequence of dsRBD3 E110A L113A (O95793 183-262 E191A/L194A): as the sequence (O95793 183-262) above, with E9A, L12A counted along it
Sequence of dsRBD3/4 F109A R209A (O95793 183-355 F190A/R290A): as the sequence (O95793 183-355 E191A/L194A/Q293A/Q296A) above, with F8A, A9E, A12L, R108A, A111Q, A114Q counted along it
Sequence of dsRBD4 S208A Q212A Q215A (O95793 286-355 S289A/Q293A/Q296A): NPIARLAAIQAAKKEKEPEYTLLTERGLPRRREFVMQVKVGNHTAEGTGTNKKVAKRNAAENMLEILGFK
Sequence of dsRBD3/4 S208A (O95793 183-355 S289A): as the sequence (O95793 183-355 E191A/L194A/Q293A/Q296A) above, with A9E, A12L, S107A, A111Q, A114Q counted along it
Sequence of dsRBD4 Q212A Q215A (O95793 286-355 Q293A/Q296A): as the sequence (O95793 286-355 S289A/Q293A/Q296A) above, with A4S counted along it
Sequence of STAU1 dsRBD4 (O95793 286-355): as the sequence (O95793 286-355 S289A/Q293A/Q296A) above, with A4S, A8Q, A11Q counted along it
Sequence of dsRBD3/4 Q212A Q215A (O95793 183-355 Q293A/Q296A): as the sequence (O95793 183-355 E191A/L194A/Q293A/Q296A) above, with A9E, A12L counted along it
Sequence of dsRBD3/4 K133A (O95793 183-355 K214A): as the sequence (O95793 183-355 E191A/L194A/Q293A/Q296A) above, with A9E, A12L, K32A, A111Q, A114Q counted along it
Sequence of dsRBD3/4 R209A (O95793 183-355 R290A): as the sequence (O95793 183-355 E191A/L194A/Q293A/Q296A) above, with A9E, A12L, R108A, A111Q, A114Q counted along it

As for GGAGUGCCAGAAGCUACGGUUUCUGGUACUCC (structured_RNA) [bottom 2/3 ARF1 SBS], the Kd in the data set with STAU1 dsRBD3/4 was 31 ± 0.1 nM.
On the same count and under the same terms, as for GGCGAGUGCCAGAAGCUGUCUCCUUCGGGAGGCAGUUUCUGGUACUCGCC (structured_RNA) [long ARF1 SBS (19 bp, UUCG loop)], the figure is 26.5 ± 2.9 nM.
For GGCAGAAGCUGCCUCUUCGGAGGCAGUUUCUGCC (structured_RNA) [top 2/3 ARF1 SBS (sARF1 SBS)], the dissociation constant (Kd) was determined as 17.8 ± 4.3 nM with STAU1 dsRBD3/4; 18.5 ± 4.3 nM in the data set with dsRBD3/4 E110A L113A; 17.7 ± 4.1 nM in the data set with dsRBD3/4 R209A; 147 ± 35.6 nM with dsRBD3 I105A S106A; 15.3 ± 0.7 nM with dsRBD3/4 Q212A Q215A; 41.4 ± 1.5 nM in the data set with STAU1 dsRBD3. Besides, the Kd was 390 ± 38.4 nM with dsRBD4 S208A Q212A Q215A; 74.8 ± 17.6 nM with STAU1 dsRBD4; 27.7 ± 5.5 nM in the data set with dsRBD3/4 F109A R209A; 18.5 ± 1.1 nM in [1]; 87.2 ± 3 nM in [2]; 28.8 ± 2.7 nM with dsRBD3/4 I105A S106A. In addition, the Kd in the data set with dsRBD3/4 F109A worked out at 29.7 ± 5.8 nM; in the data set with dsRBD3/4 R234A R236A, 26 ± 9.1 nM; in [3] it was 21.8 ± 6.4 nM; in the data set with dsRBD3/4 K133A, 23.2 ± 9.7 nM; in data set [4] it was 43.7 ± 5.2 nM; in the data set with dsRBD3/4 S208A, 28 ± 4.4 nM. Further, the results for the equilibrium dissociation constant (Kd) with dsRBD3 E110A L113A, with dsRBD4 Q212A Q215A and with dsRBD3 F109A were 31.5 ± 1.7 nM, 121 ± 15 nM and 98.2 ± 8.7 nM, respectively.
